{"source": "paper PMC11551737", "about": "“Structural and functional insights into the interaction between the bacteriophage T4 DNA processing proteins gp32 and Dda” (Nucleic Acids Research, 2024)", "key": {"[1]": {"molecular_target": "T1, bacteriophage T4 helicase Dda, wild type (bacteriophage T4) (UniProt P32270)", "T1 sequence": "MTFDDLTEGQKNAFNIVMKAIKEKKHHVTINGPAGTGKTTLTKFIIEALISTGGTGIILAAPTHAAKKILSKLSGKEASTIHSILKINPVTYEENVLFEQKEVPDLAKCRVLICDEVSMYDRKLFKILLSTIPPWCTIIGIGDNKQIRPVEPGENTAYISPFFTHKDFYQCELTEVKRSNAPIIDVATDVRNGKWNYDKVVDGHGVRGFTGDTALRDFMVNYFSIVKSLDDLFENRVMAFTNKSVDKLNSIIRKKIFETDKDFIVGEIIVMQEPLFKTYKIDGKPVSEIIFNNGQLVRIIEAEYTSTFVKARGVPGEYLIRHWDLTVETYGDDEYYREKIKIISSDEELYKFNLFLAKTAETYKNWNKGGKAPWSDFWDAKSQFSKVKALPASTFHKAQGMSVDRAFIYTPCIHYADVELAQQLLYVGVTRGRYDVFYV"}, "wild-type Dda": {"test_system": "wild-type Dda", "test": "Dda-dependent DNA unwinding assay with gp32 variants (fluorescein-quenched replication fork substrate, no annealing trap)", "format": "biochemical, bacteriophage T4", "details": "375 nM gp32 variant, 25 nM wild-type Dda, 25 nM substrate, 2.5 mM ATP, triplicate experiments; for Rate constant of product formation (single exponential fit): 5 mM Mg(OAc)2, pH 7.5, room temperature, fluorescein fluorescence; for Amplitude of the product formation curve (fluorescence): higher amplitude = more effective prevention of reannealing", "description": "A partial duplex substrate mimicking a replication fork was prepared by mixing equimolar concentrations of the following oligonucleotides: loading strand - […]/36-FAM/, displaced strand - […], and leading strand - […] in 10 mM HEPES/1 mM EDTA. The sample was heated to 95°C for 5 min, followed by slowly cooling to room temperature. All concentrations are final, after mixing. ATP (2.5 mM), Mg(OAc)2 (5 mM) and gp32 (375 nM) in assay buffer (25 mM HEPES, pH 7.5, 10 mM KOAc, 0.1 mM EDTA, 2 mM β-mercaptoethanol, 1 mg/ml bovine serum albumin and 4 mM phosphoenol pyruvate) were mixed and added to wells in one row of a black 96-well plate. The reactions were initiated by adding 25 nM substrate, 25 nM wild-type Dda and 5 U/ml pyruvate kinase/lactate dehydrogenase in assay buffer with a multichannel pipette to the entire row simultaneously. Fluorescein fluorescence was measured 8 times per minute in a VICTOR Nivo Multimode Plate Reader (Perkin Elmer) at room temperature with excitation through a 480/30 nm bandpass filter and emission measured after a 530/30 nm bandpass filter."}, "[2]": {"molecular_target": "T2, bacteriophage T4 helicase Dda, ATPase deficient mutant K38A (bacteriophage T4, UniProt P32270 1-439, K38A)", "T2 construct": "Dda, SF1B helicase of bacteriophage T4, active site point mutant K38A; called His-tagged in SPR analysis 1; theoretical mass printed as 52 046 Da; also called Dda-K38A; Dda–K38A", "T2 sequence": "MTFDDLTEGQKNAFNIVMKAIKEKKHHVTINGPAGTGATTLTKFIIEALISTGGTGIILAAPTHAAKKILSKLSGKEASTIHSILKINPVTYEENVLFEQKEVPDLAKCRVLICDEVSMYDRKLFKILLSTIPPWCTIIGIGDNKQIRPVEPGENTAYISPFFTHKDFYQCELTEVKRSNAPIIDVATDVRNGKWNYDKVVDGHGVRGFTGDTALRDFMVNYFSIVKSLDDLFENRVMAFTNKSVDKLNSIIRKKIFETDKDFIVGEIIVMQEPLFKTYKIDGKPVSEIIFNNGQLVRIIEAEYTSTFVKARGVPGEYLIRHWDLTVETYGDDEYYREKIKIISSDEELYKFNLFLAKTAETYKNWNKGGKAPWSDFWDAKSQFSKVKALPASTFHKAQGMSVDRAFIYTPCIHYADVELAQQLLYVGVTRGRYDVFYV", "test": "SPR; SPR analysis 1: Biacore 3000, 25°C; His-tagged Dda-K38A/dT20 immobilised on an NTA chip by capture-coupling (~5800 RU); peptides injected, 4-fold dilution series, maximum 100 μM; 20 mM Tris-acetate pH 8.0, 150 mM NaCl, 10 mM magnesium acetate, 3 mM potassium glutamate, 1 mM TCEP, 0.05% Tween20, 10% glycerol; steady-state fit, 1:1 model", "details": "both partners purified"}, "[3]": {"molecular_target": "T3, bacteriophage T4 helicase Dda, wild type (bacteriophage T4, UniProt P32270 1-439)", "T3 chain": "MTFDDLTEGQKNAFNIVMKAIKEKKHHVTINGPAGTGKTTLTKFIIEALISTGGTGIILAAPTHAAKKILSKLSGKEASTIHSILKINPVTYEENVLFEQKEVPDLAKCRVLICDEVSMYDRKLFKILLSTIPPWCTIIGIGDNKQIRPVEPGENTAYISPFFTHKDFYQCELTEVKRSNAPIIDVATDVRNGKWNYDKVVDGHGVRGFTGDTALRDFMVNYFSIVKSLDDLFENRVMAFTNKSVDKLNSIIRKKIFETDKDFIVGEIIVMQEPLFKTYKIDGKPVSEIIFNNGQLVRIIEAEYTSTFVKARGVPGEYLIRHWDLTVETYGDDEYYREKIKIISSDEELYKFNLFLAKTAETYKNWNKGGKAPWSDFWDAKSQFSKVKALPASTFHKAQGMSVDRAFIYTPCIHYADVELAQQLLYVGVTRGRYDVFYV", "test": "SPR; wild-type Dda bound to dT20"}}, "data": [{"molecule": "gp32-A (1–254), gp32 that lacks the C-terminal region (domain or fragment) MFKRKSTAELAAQMAKLNGNKGFSSEDKGEWKLKLDNAGNGQAVIRFLPSKNDEQAPFAILVNHGFKKNGKWYIETCSSTHGDYDSCPVCQYISKNDLYNTDNKEYSLVKRKTSYWANILVVKDPAAPENEGKVFKYRFGKKIWDKINAMIAVDVEMGETPVDVTCPWEGANFVLKVKQVSGFSNYDESKFLNQSAIPNIDDESFQKELFEQMVDLSEMTSKDKFKSFEELNTKFGQVMGTAVMGGAAATAAKK", "values": [{"measurement": "amplitude of the product formation curve (fluorescein fluorescence) in the Dda-dependent DNA unwinding assay without annealing trap; 375 nM gp32, 25 nM wild-type Dda, 25 nM substrate", "setting": "[1]", "value": 86000}]}, {"molecule": "gp32-A: gp32 lacking the C-terminal region (residues 1–254) (protein, left off: 6xHis, N-terminal, state not stated) MFKRKSTAELAAQMAKLNGNKGFSSEDKGEWKLKLDNAGNGQAVIRFLPSKNDEQAPFAILVNHGFKKNGKWYIETCSSTHGDYDSCPVCQYISKNDLYNTDNKEYSLVKRKTSYWANILVVKDPAAPENEGKVFKYRFGKKIWDKINAMIAVDVEMGETPVDVTCPWEGANFVLKVKQVSGFSNYDESKFLNQSAIPNIDDESFQKELFEQMVDLSEMTSKDKFKSFEELNTKFGQVMGTAVMGGAAATAAKK", "values": [{"measurement": "Rate constant of product formation (single exponential fit)", "setting": "wild-type Dda", "value": 0.021, "unit": "s⁻¹"}, {"measurement": "Amplitude of the product formation curve (fluorescence)", "setting": "wild-type Dda", "value": "86 000"}]}, {"molecule": "gp32-B (21–301), gp32 that lacks the N-terminal region (domain or fragment) KGFSSEDKGEWKLKLDNAGNGQAVIRFLPSKNDEQAPFAILVNHGFKKNGKWYIETCSSTHGDYDSCPVCQYISKNDLYNTDNKEYSLVKRKTSYWANILVVKDPAAPENEGKVFKYRFGKKIWDKINAMIAVDVEMGETPVDVTCPWEGANFVLKVKQVSGFSNYDESKFLNQSAIPNIDDESFQKELFEQMVDLSEMTSKDKFKSFEELNTKFGQVMGTAVMGGAAATAAKKADKVADDLDAFNVDDFNTKTEDDFMSSSSGSSSSADDTDLDDLLNDL", "values": [{"measurement": "amplitude of the product formation curve (fluorescein fluorescence) in the Dda-dependent DNA unwinding assay without annealing trap; 375 nM gp32, 25 nM wild-type Dda, 25 nM substrate", "setting": "[1]", "value": 200000}]}, {"molecule": "gp32-B: gp32 lacking the N-terminal region (residues 21–301) (protein, left off: 6xHis, N-terminal, state not stated) KGFSSEDKGEWKLKLDNAGNGQAVIRFLPSKNDEQAPFAILVNHGFKKNGKWYIETCSSTHGDYDSCPVCQYISKNDLYNTDNKEYSLVKRKTSYWANILVVKDPAAPENEGKVFKYRFGKKIWDKINAMIAVDVEMGETPVDVTCPWEGANFVLKVKQVSGFSNYDESKFLNQSAIPNIDDESFQKELFEQMVDLSEMTSKDKFKSFEELNTKFGQVMGTAVMGGAAATAAKKADKVADDLDAFNVDDFNTKTEDDFMSSSSGSSSSADDTDLDDLLNDL", "values": [{"measurement": "Rate constant of product formation (single exponential fit)", "setting": "wild-type Dda", "value": 0.013, "unit": "s⁻¹"}, {"measurement": "Amplitude of the product formation curve (fluorescence)", "setting": "wild-type Dda", "value": "200 000"}]}, {"molecule": "AATAAKKADKVADDLDAFNVDDFNTKTEDDFMS (peptide, UniProt P03695 248-280, looked up, source: synthetic peptide)", "note": "[gp32 C-terminal peptide 248–280]", "values": [{"measurement": "binding result", "setting": "[2]", "value": "binds"}]}, {"molecule": "AATAAKKADKVADDLDAFNVDDFNT (peptide, UniProt P03695 248-272, looked up, source: synthetic peptide)", "note": "[gp32 C-terminal peptide 248–272]", "values": [{"measurement": "binding result", "setting": "[2]", "value": "binds"}]}, {"molecule": "NTKTEDDFMSSSSGSSSSADDTDLDDLLNDL", "note": "[gp32 C-terminal peptide 271–301]", "values": [{"measurement": "Kd", "setting": "[3]", "value": 178, "unit": "µM"}]}]}
